PMC7104407, “DBC1, p300, HDAC3, and Siah1 coordinately regulate ELL stability and function for expression of its target genes” (Proceedings of the National Academy of Sciences of the …, 2020)

Biological target: T1, GST–ELL (human, UniProt P55199 1-621)
T1 construct: ELL (ELL1), human elongation factor; also called purified recombinant GST–ELL; source: bacterial expression system, purified
Experiment: pull-down; in vitro direct interaction assay with purified GST–ELL or GST and purified HDAC3
Conditions: both partners purified

B1: HDAC3, purified (enzyme, human, UniProt O15379 1-428, looked up)
chain: MAKTVAYFYDPDVGNFHYGAGHPMKPHRLALTHSLVLHYGLYKKMIVFKPYQASQHDMCRFHSEDYIDFLQRVSPTNMQGFTKSLNAFNVGDDCPVFPGLFEFCSRYTGASLQGATQLNNKICDIAINWAGGLHHAKKFEASGFCYVNDIVIGILELLKYHPRVLYIDIDIHHGDGVQEAFYLTDRVMTVSFHKYGNYFFPGTGDMYEVGAESGRYYCLNVPLRDGIDDQSYKHLFQPVINQVVDFYQPTCIVLQCGADSLGCDRLGCFNLSIRGHGECVEYVKSFNIPLLVLGGGGYTVRNVARCWTYETSLLVEEAISEELPYSEYFEYFAPDFTLHPDVSTRIENQNSRQYLDQIRQTIFENLKMLNHAPSVQIHDVPADLLTYDRTDEADAEERGPEENYSRPEAPNEFYDGDHDNDKESDVEI
notes: histone deacetylase 3, human; also called purified HDAC3; source: overexpressed in mammalian 293T cells, purified (high salt-based purification method)
B1: binds.
